# B1: Transmembrane 4 L6 family member 1 (Homo sapiens), P30408 (parent)
# chain: MCYGKCARCIGHSLVGLALLCIAANILLYFPNGETKYASENHLSRFVWFFSGIVGGGLLMLLPAFVFIGLEQDDCCGCCGHENCGKRCAMLSSVLAALIGIAGSGYCVIVAALGLAEGPLCLDSLGQWNYTFASTEGQYLLDTSTWSECTEPKHIVEWNVSLFSILLALGGIEFILCLIQVINGVLGGICGFCCSHQQQYDC
# partner: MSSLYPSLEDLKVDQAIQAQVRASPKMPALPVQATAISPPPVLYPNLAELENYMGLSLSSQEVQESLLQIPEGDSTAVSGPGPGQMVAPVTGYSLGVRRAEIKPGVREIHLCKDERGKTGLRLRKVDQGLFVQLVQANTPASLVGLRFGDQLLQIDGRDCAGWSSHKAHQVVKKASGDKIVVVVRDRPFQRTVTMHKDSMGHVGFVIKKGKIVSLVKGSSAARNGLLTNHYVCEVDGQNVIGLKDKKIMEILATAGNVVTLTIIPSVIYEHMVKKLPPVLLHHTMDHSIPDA
# Variants of: B1
# Conditions: with sdcb2_human SDCBP2, Q9H190
row,effect of a mutation on the interaction,Variant
1,disrupting interaction strength,MCYGKCARCIGHSLVGLALLCIAANILLYFPNGETKYASENHLSRFVWFFSGIVGGGLLMLLPAFVFIGLEQDDCCGCCGHENCGKRCAMLSSVLAALIGIAGSGYCVIVAALGLAEGPLCLDSLGQWNYTFASTEGQYLLDTSTWSECTEPKHIVEWNVSLFSILLALGGIEFILCLIQVINGVLGGICGFCCSHQQQYDG [C202G]

# — IntAct's records for PubMed 11102519
